Reference: publication PMC8033513, “Targeting netrin‐3 in small cell lung cancer and neuroblastoma” (EMBO Molecular Medicine, 2021)

B1: extra‐cellular domain (ECD) of human UNC5H1 (domain or fragment)
chain: not shown
notes: UNC5H1 (UNC5A), human, extracellular domain; it may be an Fc chimera like the other ECDs; also called hUNC5H1; UNC5A; source: recombinant
B2: chicken netrin‐2L (netrin‐2‐like) (ligand)
chain: not shown
notes: netrin-2 (netrin-2-like), chicken, used in place of human netrin-3 as its ortholog; Used because recombinant human netrin-3 was not soluble; also called NTN2L; NTN‐2L; source: recombinant
B3: extra‐cellular domain (ECD) of human UNC5H3 (domain or fragment)
chain: not shown
notes: UNC5H3 (UNC5C), human, extracellular domain; it may be an Fc chimera like the other ECDs; also called hUNC5H3; UNC5‐C; source: recombinant
B4: extra‐cellular domain (ECD) of rat UNC5H2 (Fc fusion)
chain: not shown
notes: UNC5H2 (UNC5B), rat, extracellular domain; The Fc is inferred from the capture on AHC biosensors in the antagonism test; also called rUNC5H2; UNC5‐B; source: recombinant

Key:
[1] = molecular target: B2; test: BLI; OctetRED96; netrin-1 or netrin-2 coated on HIS1K biosensors, UNC5 ECDs in solution at 3.12-100 nM; 30°C, 1,000 rpm, PBS, 0.02% Tween-20, 0.1% BSA; 5 min association, 5 min dissociation; 1:1 binding model; conditions: both partners purified
[2] = molecular target: T1, extra‐cellular domain (ECD) of mouse DCC (mouse, UniProt P70211 26-1097); test: BLI; OctetRED96; ECDs of mNeogenin or mDCC coated on AHC biosensors, hNetrin-1 or chNetrin-2 in solution at 3.12-100 nM; 30°C, PBS, 0.02% Tween-20, 0.1% BSA with 1 µg/ml Dextran 5,000; 1:1 binding model; conditions: both partners purified
T1 construct: DCC (deleted in colorectal carcinoma), mouse, extracellular domain; The Fc is inferred from the capture on AHC biosensors; also called mDCC; source: recombinant
T1 sequence (P70211 26-1097): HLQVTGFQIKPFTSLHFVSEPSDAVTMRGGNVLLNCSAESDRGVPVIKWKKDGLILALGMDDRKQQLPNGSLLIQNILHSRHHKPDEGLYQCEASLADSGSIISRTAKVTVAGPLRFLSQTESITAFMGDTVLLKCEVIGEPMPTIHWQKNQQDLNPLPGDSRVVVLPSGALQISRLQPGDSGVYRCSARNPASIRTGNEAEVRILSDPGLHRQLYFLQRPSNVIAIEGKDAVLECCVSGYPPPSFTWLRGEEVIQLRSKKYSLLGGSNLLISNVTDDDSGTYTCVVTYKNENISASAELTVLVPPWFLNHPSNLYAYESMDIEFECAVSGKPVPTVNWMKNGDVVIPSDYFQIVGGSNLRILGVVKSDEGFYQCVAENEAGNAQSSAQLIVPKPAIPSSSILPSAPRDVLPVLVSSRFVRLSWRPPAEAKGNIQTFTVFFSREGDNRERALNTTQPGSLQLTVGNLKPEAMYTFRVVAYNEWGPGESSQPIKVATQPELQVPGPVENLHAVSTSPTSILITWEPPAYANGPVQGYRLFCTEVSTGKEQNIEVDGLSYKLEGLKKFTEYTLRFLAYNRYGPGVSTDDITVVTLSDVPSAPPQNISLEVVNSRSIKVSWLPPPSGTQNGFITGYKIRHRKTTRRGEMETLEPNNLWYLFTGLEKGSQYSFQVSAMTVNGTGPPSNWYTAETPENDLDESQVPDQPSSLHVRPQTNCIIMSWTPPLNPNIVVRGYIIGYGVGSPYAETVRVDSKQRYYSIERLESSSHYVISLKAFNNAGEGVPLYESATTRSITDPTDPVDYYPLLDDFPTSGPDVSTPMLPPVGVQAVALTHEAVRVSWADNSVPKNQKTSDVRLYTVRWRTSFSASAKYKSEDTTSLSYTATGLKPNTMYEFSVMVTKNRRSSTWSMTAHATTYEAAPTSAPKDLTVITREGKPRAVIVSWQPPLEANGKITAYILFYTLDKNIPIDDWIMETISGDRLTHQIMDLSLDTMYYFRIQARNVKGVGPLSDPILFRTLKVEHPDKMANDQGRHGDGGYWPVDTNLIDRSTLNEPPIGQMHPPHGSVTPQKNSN

Row | Binder | binding result [1] | binding result [2]
1 | B1 | binds | 
2 | B2 |  | binds
3 | B3 | binds | 
4 | B4 | binds | 
